Source: patent US20260347399A1, “BRAIN PENETRATING PEPTIDES AND METHODS OF USE” (priority 2022, published 2026)
Ends that are not written are not given here.

How the values were obtained:
mouse CNS = assay: CVGTNCY peptide-phage biodistribution; assay type: in vivo
Method: CVGTNCY (SEQ ID NO:2) peptide-phage or control phage were injected iv into mice, after one hour circulation animals were perfused with 20 ml PBS, organs were collected, weighed, and dropped to 1% NP40-LB solution. Organs were homogenized and titer of each tissue was determined. FAM-labeled peptides (2 mM of peptide in PBS) were injected intravenously and 3 hours later the animals were perfused with 20 mL of PBS. The organs were excised, snap-frozen in the vapor of liquid nitrogen, and stored at −80 °C. For confocal microscopy, the tissues were sectioned at 15 μm and stained with antibodies and DAPI.
To describe the utility of CVGTNCY (SEQ ID NO:2) peptide as a systemic CNS homing peptide, the biodistribution of CVGTNCY (SEQ ID NO:2) peptide-phage as well as peptide-functionalized AgNPs were analyzed in rodents. […] No significant difference between CVGTNCY (SEQ ID NO:2) and G7 titers was determined in the rest of the analyzed organs/tissues).

mutant NRP1 = molecular target: T1, mutant NRP1 (Homo sapiens, UniProt O14786); assay: Peptide-phage binding on ELISA plate
T1 sequence (O14786 273-586 limits assumed): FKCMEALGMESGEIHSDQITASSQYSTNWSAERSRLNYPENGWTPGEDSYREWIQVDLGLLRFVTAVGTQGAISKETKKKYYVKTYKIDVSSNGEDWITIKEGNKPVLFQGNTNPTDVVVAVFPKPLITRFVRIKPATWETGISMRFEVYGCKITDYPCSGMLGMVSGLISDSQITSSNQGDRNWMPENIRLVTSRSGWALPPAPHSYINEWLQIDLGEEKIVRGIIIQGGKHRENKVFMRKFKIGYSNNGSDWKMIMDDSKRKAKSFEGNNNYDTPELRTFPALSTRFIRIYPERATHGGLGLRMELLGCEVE
Method: (§1) Reelin protein (#8546-MR-050; R&D Systems), NRP-1 b1b2 (wt and mutant) or 5% BSA was immobilized on Costar 96-Well ELISA plate (#3590, Corning Life Sciences, Tewksbury, MA, USA). The multiwell plates were coated with 20 μg/ml recombinant protein in 100 μl of PBS overnight at +4 °C, followed by blocking with 1% bovine serum albumin (BSA) in PBS overnight at +4 °C. The phage (5×10^8 pfu in 100 μl of PBS-BSA) was incubated overnight at +4 °C, followed by 6 washes with PBS containing 1% BSA and 0.1% Tween-20 (washing buffer) to remove background phages. BLT5615 OD600=0.5 containing 2 mM IPTG was used to recover the phages and determine the titer of samples.
(§2) Next, an affinity chromatography was performed to identify a receptor of the CVGTNCY (SEQ ID NO:2), and selected a receptor candidate, which is a secreted extracellular matrix protein Reelin. CVGTNCY (SEQ ID NO:2) binding to Reelin protein was tested by cell free method on ELISA plate. Recombinant human Reelin protein (Ser1221-Gln2666; 163 kDa) was used to coat the ELISA plate and the CVGTNCY (SEQ ID NO:2) peptide-phage was allowed to bind to it. After several washes, the titer of the experiment was determined to rate on the binding efficiency.
(§3) Reelin was identified from affinity chromatography proteomics data. […] The binding efficiency was evaluated based on the titer (PFU/ml) of each sample. […]

NRP-1 = molecular target: T2, NRP-1 (Homo sapiens, UniProt O14786); assay: Peptide-phage binding on ELISA plate
T2 sequence (O14786 273-586 limits assumed): T1 sequence (O14786 273-586 limits assumed)
Method: as §1, §2, §3

WT GBM cells = assay: Proximity labelling with peptide-HRP complex and mass spectrometry; assay type: cell-based, mouse; conditions: WT GBM and Neuro2A proximity labelling, mass spectrometry
Method: To assess the efficiency and specificity of proximity labelling, WT GBM cells were cultured in 24-well plates on polylysine coated glass coverslips until 80-90% confluency. Cerepep and horseradish peroxidase complex (CP-HRP) was prepared by conjugating biotinylated Cerepep to streptavidin-HRP. Control biotin-HRP complex was prepared by conjugating biotin to streptavidin-HRP. 4 μM CP-HRP or biot-HRP in DPBS was added to the cells and incubated at 37 °C for 1 h. The cells were washed with DPBS. 500 μM biotin-phenol (Iris Biotech #41994-02-9) in DPBS was added to the cells and incubated at 37 °C for 30 min. To start the reaction, H2O2 with the final concentration of 1 mM was added to the cells and incubated for 2 min at RT. The reaction was stopped by washing with 100 U/ml catalase in DPBS. Cells were fixed in 4% PFA and biotinylated proteins were detected with Streptavidin-Dylight 550 conjugate (1:500 in DPBS). Nuclei were stained with DAPI and the biotinylation of cells was analyzed with confocal microscopy.
To biotinylate the receptor of Cerepep peptide to be detected with mass spectrometry, the proximity labelling was performed on WT GBM and Neuro2A cells in suspension following the same protocol as with attached cells. […]
Biotin was detected with Streptavidin DyLight550. The WT GBM cells were analyzed with confocal microscopy. […]

Substance | homing preference (mouse CNS; mouse, in vivo) | homing to other organs (mouse CNS; peptide-phage i.v., 1 h, mice) | level in CNS and eyes compared to control G7 phage (mouse CNS; peptide-phage i.v., 1 h, mice) | regional homing in CNS (mouse CNS; peptide-phage i.v., 1 h, mice) | binding to mutant NRP1 (mutant NRP1) | binding to NRP-1 (NRP-1) | most probable receptor candidate (WT GBM cells)
CVGTNCY | homes preferentially to the eyes/brain/CNS | did not show a trend of homing | High level | tendency to home more to the hippocampus, frontal cortex and cerebellum | no binding was detected | no binding was detected | –
SRRVISRAKLAAAL [Cerepep, SRRVISRAKLAAAL] | – | – | – | – | – | – | LRP1 was considered the most probable candidate
